From the supplement of paper PMC9112550, “Optimization of the antimicrobial peptide Bac7 by deep mutational scanning” (BMC Biology, 2022)

Test system: Escherichia coli TOP10
Test: shrunken log2 fold change of peptide-encoding DNA abundance (4.5 h post-induction vs induction); higher = less antimicrobial activity (less host growth inhibition)
Conditions: time post-induction: 4.5 h; library: site-saturation at positions 5, 18, 19, 20
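Further: peptides expressed intracellularly from a pBAD plasmid library in pooled LB shake-flask culture, induced with 0.3% L-arabinose, DNA abundance read by NGS, three biological replicates, DESeq2 with apeglm shrinkage.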

Sequence	shrunken log2 fold change
RRIRDRPPRLPRPRPRPIEDPRP	-0.0411
RRIRDRPPRLPRPRPRPIEHPRP	-0.172
RRIRDRPPRLPRPRPRPIGAPRP	-0.173
RRIRDRPPRLPRPRPRPIKAPRP	-0.149
RRIRDRPPRLPRPRPRPIKLPRP	-0.213
RRIRDRPPRLPRPRPRPIMAPRP	-0.00298
RRIRDRPPRLPRPRPRPIMCPRP	-0.0425
RRIRDRPPRLPRPRPRPIMTPRP	0.107
RRIRDRPPRLPRPRPRPINLPRP	-0.129
RRIRDRPPRLPRPRPRPIPSPRP	0.0554
RRIRDRPPRLPRPRPRPIQNPRP	0.0608
RRIRDRPPRLPRPRPRPIQYPRP	-0.0088
RRIRDRPPRLPRPRPRPIRNPRP	0.011
RRIRDRPPRLPRPRPRPITAPRP	-0.283
RRIRDRPPRLPRPRPRPITTPRP	0.0735
RRIRDRPPRLPRPRPRPIVCPRP	0.0446
RRIRDRPPRLPRPRPRPIWWPRP	0.498
RRIRDRPPRLPRPRPRPIYFPRP	-0.839
RRIRDRPPRLPRPRPRPIYNPRP	-0.771
RRIRDRPPRLPRPRPRPKAQPRP	-0.1
RRIRDRPPRLPRPRPRPKCNPRP	-0.13
RRIRDRPPRLPRPRPRPKCWPRP	-0.00042
RRIRDRPPRLPRPRPRPKDLPRP	-0.0191
RRIRDRPPRLPRPRPRPKHAPRP	0.222
RRIRDRPPRLPRPRPRPKHDPRP	-0.16

Sequence	shrunken log2 fold change
RRIRDRPPRLPRPRPRPKHWPRP	0.723
RRIRDRPPRLPRPRPRPKHYPRP	-0.491
RRIRDRPPRLPRPRPRPKIFPRP	-0.0898
RRIRDRPPRLPRPRPRPKILPRP	0.042
RRIRDRPPRLPRPRPRPKIVPRP	-0.198
RRIRDRPPRLPRPRPRPKKAPRP	0.0426
RRIRDRPPRLPRPRPRPKMQPRP	0.247
RRIRDRPPRLPRPRPRPKNCPRP	-0.15
RRIRDRPPRLPRPRPRPKNGPRP	0.74
RRIRDRPPRLPRPRPRPKQKPRP	0.03
RRIRDRPPRLPRPRPRPKQSPRP	0.00791
RRIRDRPPRLPRPRPRPKQTPRP	0.0941
RRIRDRPPRLPRPRPRPKRFPRP	-0.017
RRIRDRPPRLPRPRPRPKRSPRP	-0.0252
RRIRDRPPRLPRPRPRPKTFPRP	0.00972
RRIRDRPPRLPRPRPRPKTRPRP	0.533
RRIRDRPPRLPRPRPRPKWDPRP	0.488
RRIRDRPPRLPRPRPRPKWYPRP	-0.0377
RRIRDRPPRLPRPRPRPKYQPRP	-0.452
RRIRDRPPRLPRPRPRPKYRPRP	-0.0164
RRIRDRPPRLPRPRPRPKYVPRP	0.13
RRIRDRPPRLPRPRPRPLAGPRP	0.121
RRIRDRPPRLPRPRPRPLCKPRP	-0.224
RRIRDRPPRLPRPRPRPLDTPRP	0.0803
RRIRDRPPRLPRPRPRPLEDPRP	-0.00783

Sequence	shrunken log2 fold change
RRIRDRPPRLPRPRPRPLGWPRP	0.366
RRIRDRPPRLPRPRPRPLKKPRP	0.31
RRIRDRPPRLPRPRPRPLMMPRP	0.0576
RRIRDRPPRLPRPRPRPLPVPRP	-0.421
RRIRDRPPRLPRPRPRPLRTPRP	0.215
RRIRDRPPRLPRPRPRPLVWPRP	0.831
RRIRDRPPRLPRPRPRPLYNPRP	-0.321
RRIRDRPPRLPRPRPRPLYYPRP	0.176
RRIRDRPPRLPRPRPRPMCDPRP	0.0645
RRIRDRPPRLPRPRPRPMCYPRP	-0.0124
RRIRDRPPRLPRPRPRPMDAPRP	0.251
RRIRDRPPRLPRPRPRPMDQPRP	0.326
RRIRDRPPRLPRPRPRPMDRPRP	-0.01
RRIRDRPPRLPRPRPRPMERPRP	-0.0122
RRIRDRPPRLPRPRPRPMGAPRP	1.43
RRIRDRPPRLPRPRPRPMGSPRP	0.00408
RRIRDRPPRLPRPRPRPMLCPRP	-0.00642
RRIRDRPPRLPRPRPRPMLIPRP	-0.0943
RRIRDRPPRLPRPRPRPMLYPRP	-0.0839
RRIRDRPPRLPRPRPRPMMAPRP	-0.00174
RRIRDRPPRLPRPRPRPMMMPRP	-0.0648
RRIRDRPPRLPRPRPRPMMTPRP	0.395
RRIRDRPPRLPRPRPRPMNPPRP	-0.0564
RRIRDRPPRLPRPRPRPMNYPRP	0.185
RRIRDRPPRLPRPRPRPMRPPRP	0.804
